# Experimental data from patent US20040014636A1, “Pharmaceutical compositions comprising a modulator of adamts-1” (priority 2000, published 2004).
# B1: ADAMTS-1: metalloproteinase (A Disintegrin-like And Metalloprotease with Thrombospondin type 1 motif), incubated with total proteoglycan (protein)
# chain: FVSSHRYVETMLVADQSMAEFHGSGLKHYLLTLFSVAARLYKHPSIRNSVSLVVVKILVIHDEQKGPEVTSNAALTLRNFCNWQKQHNPPSDRDAEHYDTAILFTRQDLCGSQTCDTLGMADVGTVCDPSRSCSVIEDDGLQAAFTTAHELGHVFNMPHDDAKQCASLNGVNQDSHMMASMLSNLDHSQPWSPCSAYMITSFLDNGHGECLMDKPQNPIQLPGDLPGTSYDANRQCQFTFGEDSKHCPDAASTCSTLWCTGTSGGVLVCQTKHFPWADGTSCGEGKWCINGKCVNKTDRKHFDTPFHGSWGMWGPWGDCSRTCGGGVQYTMRECDNPVPKNGGKYCEGKRVRYRSCNLEDCPDNNGKTFREEQCEAHNEFSKASFGSGPAVEWIPKYAGVSPKDRCKLICQAKGIGYFFVLQPKVVDGTPCSPDSTSVCVQGQCVKAGCDRIIDSKKKFDKCGVCGGNGSTCKKISGSVTSAKPGYHDIITIPTGATNIEVKQRNQRGSRNNGSFLAIKAADGTYILNGDYTLSTLEQDIMYKGVVLRYSGSSAALERIRSFSPLKEPLTIQVLTVGNALRPKIKYTYFVKKKKESFNAIPTFSAWVIEEWGECSKSCELGWQRRLVECRDINGQPASECAKEVKPASTRPCADHPCPQWQLGEWSSCSKTCGKGYKKRSLKCLSHDGGVLSHESCDPLKKPKHFIDFCTMAECS
# How the values were obtained:
# [1] = tested on: ADAMTS-1 message in THP-1 cells; assay: Real time PCR of ADAMTS-1 message in THP-1 cells; format: cell-based, human; conditions: PMA 160 nM, 0 to 8+1 days
# Protocol: THP-1 cells were cultured in RPMI 1640 media supplemented with 10% FBS, penicillin-Streptomycin, sodium pyruvate, and nonessential amino acids (Sigma). PMA (Sigma) was dissolved in ethanol and diluted in the medium at a final concentration of 160 nM. LDL was equilibrated in PBS and diluted to 400 μg/mL and oxidized with 10 μM CuSO4 for 2.5 hours at 37 degrees C. The mildly oxidized LDL was equilibrated in RPMI 1640 and filter sterilized.
# THP-1 cells were cultured in media containing PMA for 0, 2, 4, 8, and 8+1 days. Another set of plates were incubated with PMA for 8+1 days, with the mildly oxidized LDL also present in the last day. RNA was extracted and ADAMTS-1 message was analyzed by real time PCR.
# [2] = tested on: 38 amino acid peptide derived from the published cleavage site on the proteoglycan aggrecan
# [3] = target: versican (large proteoglycan population secreted by primary human aortic smooth muscle cells) (UniProt P13611)
# Sequence of UniProt P13611 (P13611 21-3396): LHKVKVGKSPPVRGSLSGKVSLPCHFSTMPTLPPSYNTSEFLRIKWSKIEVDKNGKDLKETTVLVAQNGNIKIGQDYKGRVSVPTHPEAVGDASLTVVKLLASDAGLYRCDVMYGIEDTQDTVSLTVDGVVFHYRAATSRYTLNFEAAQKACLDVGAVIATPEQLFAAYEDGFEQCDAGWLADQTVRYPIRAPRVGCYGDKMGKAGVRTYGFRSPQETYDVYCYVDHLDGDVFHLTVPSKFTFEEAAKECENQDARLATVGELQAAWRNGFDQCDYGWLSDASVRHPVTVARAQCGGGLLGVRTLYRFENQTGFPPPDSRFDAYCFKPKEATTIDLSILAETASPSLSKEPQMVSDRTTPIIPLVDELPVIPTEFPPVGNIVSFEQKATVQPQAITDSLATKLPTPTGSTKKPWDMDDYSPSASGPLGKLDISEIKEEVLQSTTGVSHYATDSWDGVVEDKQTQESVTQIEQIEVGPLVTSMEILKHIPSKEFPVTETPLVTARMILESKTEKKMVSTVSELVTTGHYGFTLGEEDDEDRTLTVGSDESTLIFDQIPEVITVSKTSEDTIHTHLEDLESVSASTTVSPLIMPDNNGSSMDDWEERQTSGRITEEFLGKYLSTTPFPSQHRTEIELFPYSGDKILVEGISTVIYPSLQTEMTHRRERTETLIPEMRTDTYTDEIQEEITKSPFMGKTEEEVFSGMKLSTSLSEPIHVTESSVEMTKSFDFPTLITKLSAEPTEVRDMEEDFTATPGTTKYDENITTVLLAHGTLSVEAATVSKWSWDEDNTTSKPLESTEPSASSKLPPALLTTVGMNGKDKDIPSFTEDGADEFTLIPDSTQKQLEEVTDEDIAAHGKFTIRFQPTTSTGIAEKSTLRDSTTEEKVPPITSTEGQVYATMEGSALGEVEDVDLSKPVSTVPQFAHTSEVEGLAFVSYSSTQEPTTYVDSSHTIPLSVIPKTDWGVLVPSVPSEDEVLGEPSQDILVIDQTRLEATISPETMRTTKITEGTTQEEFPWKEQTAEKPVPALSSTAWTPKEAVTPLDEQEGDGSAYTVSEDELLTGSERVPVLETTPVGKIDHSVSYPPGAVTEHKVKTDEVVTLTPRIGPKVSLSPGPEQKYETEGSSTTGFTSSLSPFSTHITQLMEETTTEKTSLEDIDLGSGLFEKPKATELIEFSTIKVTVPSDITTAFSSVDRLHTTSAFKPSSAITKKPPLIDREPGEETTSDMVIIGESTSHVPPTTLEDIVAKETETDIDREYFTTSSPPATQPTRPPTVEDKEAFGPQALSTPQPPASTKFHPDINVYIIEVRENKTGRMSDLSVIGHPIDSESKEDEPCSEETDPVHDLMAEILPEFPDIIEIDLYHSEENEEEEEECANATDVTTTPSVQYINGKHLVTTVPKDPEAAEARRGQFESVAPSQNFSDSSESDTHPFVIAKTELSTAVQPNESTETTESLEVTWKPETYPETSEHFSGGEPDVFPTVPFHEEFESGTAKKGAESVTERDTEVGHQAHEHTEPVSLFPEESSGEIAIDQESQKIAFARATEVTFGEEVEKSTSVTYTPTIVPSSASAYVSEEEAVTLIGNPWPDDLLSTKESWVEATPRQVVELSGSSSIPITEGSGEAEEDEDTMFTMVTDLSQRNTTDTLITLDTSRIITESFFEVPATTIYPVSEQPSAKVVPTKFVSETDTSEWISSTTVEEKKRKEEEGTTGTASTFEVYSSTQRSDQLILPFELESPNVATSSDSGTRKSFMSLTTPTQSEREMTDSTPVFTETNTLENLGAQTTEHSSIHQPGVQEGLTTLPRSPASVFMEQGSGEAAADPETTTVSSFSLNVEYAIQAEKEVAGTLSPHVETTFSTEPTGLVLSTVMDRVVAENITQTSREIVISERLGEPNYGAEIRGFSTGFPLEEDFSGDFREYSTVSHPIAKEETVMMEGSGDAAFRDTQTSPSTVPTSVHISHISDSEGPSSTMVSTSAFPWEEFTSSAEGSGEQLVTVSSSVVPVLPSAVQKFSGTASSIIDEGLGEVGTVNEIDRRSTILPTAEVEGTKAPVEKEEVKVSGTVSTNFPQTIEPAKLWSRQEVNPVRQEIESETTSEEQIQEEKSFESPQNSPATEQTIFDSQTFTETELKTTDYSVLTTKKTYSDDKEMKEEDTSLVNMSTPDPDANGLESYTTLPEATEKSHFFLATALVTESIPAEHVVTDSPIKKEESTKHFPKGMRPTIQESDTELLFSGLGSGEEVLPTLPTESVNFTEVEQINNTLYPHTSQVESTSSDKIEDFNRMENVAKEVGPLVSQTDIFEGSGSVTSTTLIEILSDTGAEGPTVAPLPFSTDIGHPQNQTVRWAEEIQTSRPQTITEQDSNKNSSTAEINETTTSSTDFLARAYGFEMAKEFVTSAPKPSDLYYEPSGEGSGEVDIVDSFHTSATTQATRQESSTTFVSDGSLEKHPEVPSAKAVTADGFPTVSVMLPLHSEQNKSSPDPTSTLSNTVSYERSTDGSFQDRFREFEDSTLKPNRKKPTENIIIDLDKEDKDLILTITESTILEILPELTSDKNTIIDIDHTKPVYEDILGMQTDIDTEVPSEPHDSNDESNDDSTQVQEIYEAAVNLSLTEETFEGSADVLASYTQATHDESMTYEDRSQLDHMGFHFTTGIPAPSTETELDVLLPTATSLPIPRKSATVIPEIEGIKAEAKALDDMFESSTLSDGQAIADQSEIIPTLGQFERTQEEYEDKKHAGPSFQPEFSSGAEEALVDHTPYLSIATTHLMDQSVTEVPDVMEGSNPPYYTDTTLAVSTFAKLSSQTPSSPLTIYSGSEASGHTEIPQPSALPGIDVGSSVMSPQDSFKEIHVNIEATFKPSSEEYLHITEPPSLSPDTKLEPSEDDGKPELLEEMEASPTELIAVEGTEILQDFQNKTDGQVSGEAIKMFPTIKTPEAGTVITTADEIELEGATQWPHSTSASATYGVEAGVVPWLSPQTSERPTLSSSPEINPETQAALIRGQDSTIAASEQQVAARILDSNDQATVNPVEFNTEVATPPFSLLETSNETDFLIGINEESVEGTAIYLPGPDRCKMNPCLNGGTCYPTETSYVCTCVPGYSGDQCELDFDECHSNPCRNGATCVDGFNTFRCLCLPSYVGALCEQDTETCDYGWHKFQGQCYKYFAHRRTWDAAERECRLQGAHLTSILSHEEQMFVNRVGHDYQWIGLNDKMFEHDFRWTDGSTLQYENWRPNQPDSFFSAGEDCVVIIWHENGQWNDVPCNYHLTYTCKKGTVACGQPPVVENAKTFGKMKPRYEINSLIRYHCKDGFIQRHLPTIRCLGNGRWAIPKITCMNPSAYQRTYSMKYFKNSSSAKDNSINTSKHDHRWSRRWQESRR
# versican = assay: Digestion of proteoglycans from aortic smooth muscle cells, size exclusion chromatography; format: biochemical, human; conditions: total proteoglycan from primary aortic smooth muscle cells incubated with ADAMTS-1 before size exclusion chromatography
# Protocol: Human aortic smooth muscle cells were purchased from Clonetics (BioWhittaker) and cultured according to supplier. For preparation of total proteoglycan population (total PG), AoSMCs were seeded at 3000 cells/cm2 in SmBM2 media (4×80 cm2 flasks). 5 days later, the cells were washed with Dulbecco's PBS and BME-Diploid medium with FBS was added to the cells. 1 day later, fresh DME-Diploid medium without FBS, containing 35S-Sulfate 33 μCi/mL and 3H-Leucine 17 μCi/mL, 15 mL/bottle and incubated for 3 days. The medium was transferred and dialyzed against binding buffer containing 8M urea, 2 mM EDTA, 0.5% Triton X-100, and 20 mM Tris-HCl, pH 7.5, for 48 hours and applied to a pre-equilibrated Hi-Trap Q column. After washing with 25 mL of Elution buffer A (binding buffer+0.25 M NaCl, proteoglycan population is eluted with a linear salt gradient: 0.25-3 M NaCl in binding buffer. Total counts in each fraction were counted by liquid scintillation counting. The fractions containing PGs were pooled, dialyzed against water, lyophilized and stored at −20 degrees C. until use (‘total PG’).
# Separation by size exclusion chromatography was performed using a Superdex 200 HR 10/30 from Amersham Pharmacia biotech. […] 1 mL fractions were collected and 35S measured for each fraction.
molecule,measurement,setting,value
CCCCCCCCCCCCCC(=O)O[C@@H]1[C@@H](C)[C@@]2(O)[C@@H](C=C(CO)C[C@]3(O)C(=O)C(C)=C[C@@H]23)[C@@H]2C(C)(C)[C@]12OC(C)=O [PMA],ADAMTS-1 message level,[1],induced
recombinant ADAMTS-1,"cleavage of peptide substrate, HPLC analysis",[2],Cleavage of the peptide by recombinant ADAMTS-1 has been confirmed by HPLC analysis
same,size exclusion chromatography of total proteoglycan incubated with or without ADAMTS-1,[3],"In the presence of ADAMTS-1, the size of the large proteoglycan population made up primarily of versican is reduced and the size of the peak corresponding to smaller sized proteoglycan population is increased"
B1,cleavage of large proteoglycan population (versican),versican,the size of the large proteoglycan peak is diminished
